{"source": "paper PMC5469797", "about": "(2017)", "key": {"[1]": {"target": "T1, full-length muPA inhibited at the active site with Glu-Gly-Arg-chloromethylketone (murine, UniProt P06869 21-433, irreversible active site binding ligand Glu-Gly-Arg-chloromethylketone (EGR-cmk) in the active site)", "T1 sequence (P06869 21-433)": "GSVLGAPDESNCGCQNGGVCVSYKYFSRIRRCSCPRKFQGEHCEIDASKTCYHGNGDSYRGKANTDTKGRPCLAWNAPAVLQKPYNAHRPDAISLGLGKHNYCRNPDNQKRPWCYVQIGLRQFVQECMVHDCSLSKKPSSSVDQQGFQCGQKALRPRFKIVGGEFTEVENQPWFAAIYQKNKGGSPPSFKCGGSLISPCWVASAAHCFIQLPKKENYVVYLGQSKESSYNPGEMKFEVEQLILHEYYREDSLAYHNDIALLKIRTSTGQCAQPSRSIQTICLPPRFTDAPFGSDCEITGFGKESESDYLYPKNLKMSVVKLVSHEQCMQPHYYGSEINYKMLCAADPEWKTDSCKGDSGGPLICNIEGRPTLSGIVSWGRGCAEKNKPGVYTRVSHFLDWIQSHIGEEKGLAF", "test": "SPR; EGR-cmk inhibited"}, "[2]": {"target": "T2, catalytic domain of muPA (Gly2-Gly244, C122A) inhibited at the active site with Glu-Gly-Arg-chloromethylketone (murine, irreversible active site binding ligand Glu-Gly-Arg-chloromethylketone (EGR-cmk) in the active site)", "T2 sequence (chain, as listed by the source C122A)": "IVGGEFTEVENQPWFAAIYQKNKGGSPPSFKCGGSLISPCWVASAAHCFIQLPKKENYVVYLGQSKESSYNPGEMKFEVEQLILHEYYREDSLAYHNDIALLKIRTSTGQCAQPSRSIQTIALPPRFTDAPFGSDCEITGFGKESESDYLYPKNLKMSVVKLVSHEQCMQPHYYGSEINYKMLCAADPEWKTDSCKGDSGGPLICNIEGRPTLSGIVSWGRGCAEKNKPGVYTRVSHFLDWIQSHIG", "test": "SPR; EGR-cmk inhibited"}, "[3]": {"target": "T1, full-length muPA inhibited at the …", "test": "SPR; EGR-cmk inhibited", "remark": "listed apart in the source"}, "[4]": {"target": "T2, catalytic domain of muPA (Gly2-Gly244, …)", "test": "SPR; EGR-cmk inhibited", "remark": "listed apart in the source"}, "[5]": {"target": "T3, catalytic serine protease domain of murine urokinase-type plasminogen activator (muPA), Gly2-Gly244, C122A (murine)", "T3 sequence (chain, as listed by the source C122A)": "as above", "test": "SPR"}, "[6]": {"target": "T4, full-length murine urokinase-type plasminogen activator (muPA) (murine, UniProt P06869 21-433)", "T4 sequence (P06869 21-433)": "as the sequence (P06869 21-433) above", "test": "SPR"}, "[7]": {"target": "T3, catalytic serine protease domain of …", "test": "SPR", "remark": "listed apart in the source"}, "[8]": {"target": "T4, full-length murine urokinase-type …", "test": "SPR", "remark": "listed apart in the source"}}, "data": [{"binder": "anti-muPA allosteric nanobody Nb7 (VHH) VHH: QVQLQESGGGLVQPGGSLRLSCAASGFTLGYYAIGWFRRAPGKEREGVSCISSSGGSTNYADSVKGRFTISRDNAKNTVDLQMNSLKPEDTAIYYCAAEWVPPGYGATVQALCNNAGYGMEYWGKGTQVTVSS", "values": [{"measurement": "koff", "setting": "[1]", "result": 0.00084, "unit": "s⁻¹"}, {"measurement": "koff", "setting": "[2]", "result": 0.00101, "unit": "s⁻¹"}, {"measurement": "Kd", "setting": "[3]", "result": 19.3, "unit": "nM"}, {"measurement": "Kd", "setting": "[4]", "result": 16.7, "unit": "nM"}, {"measurement": "koff", "setting": "[5]", "result": 0.0011, "unit": "s⁻¹"}, {"measurement": "koff", "setting": "[6]", "result": 0.00054, "unit": "s⁻¹"}, {"measurement": "Kd", "setting": "[7]", "result": 11.2, "unit": "nM"}, {"measurement": "Kd", "setting": "[8]", "result": 7.5, "unit": "nM"}]}]}
